These are literature values, as cited in US6699832B2 (Pfizer Inc., priority 2000, dated 2004).

Where no end group is shown, it is not given here.

The subject of data set [1] is neurotensin-1 and neurotensin-2 receptors. The conditions noted are these: non-selective antagonist.
Another data set addresses neurotensin-2 receptor (Homo sapiens, UniProt O95665). The conditions noted are these: read-out: binding affinity at the neurotensin-2 receptor.
Another data set deals with neurotensin-1 receptor (Homo sapiens, UniProt P30989). The conditions noted are these: read-out: binding affinity at the neurotensin-1 receptor.
neurotensin-1 receptor, sequence (P30989 whole entry): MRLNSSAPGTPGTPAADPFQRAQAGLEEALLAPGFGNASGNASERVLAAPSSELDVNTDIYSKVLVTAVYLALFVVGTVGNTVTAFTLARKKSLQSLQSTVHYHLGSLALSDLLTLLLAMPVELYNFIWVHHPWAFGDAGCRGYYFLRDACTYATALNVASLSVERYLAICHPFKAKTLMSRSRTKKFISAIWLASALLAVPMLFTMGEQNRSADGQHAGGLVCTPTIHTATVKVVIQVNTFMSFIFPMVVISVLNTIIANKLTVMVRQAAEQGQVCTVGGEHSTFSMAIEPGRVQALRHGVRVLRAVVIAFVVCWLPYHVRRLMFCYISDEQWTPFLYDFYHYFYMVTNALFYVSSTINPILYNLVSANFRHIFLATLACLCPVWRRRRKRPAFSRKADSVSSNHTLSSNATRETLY

neurotensin-2 receptor, sequence (O95665 whole entry): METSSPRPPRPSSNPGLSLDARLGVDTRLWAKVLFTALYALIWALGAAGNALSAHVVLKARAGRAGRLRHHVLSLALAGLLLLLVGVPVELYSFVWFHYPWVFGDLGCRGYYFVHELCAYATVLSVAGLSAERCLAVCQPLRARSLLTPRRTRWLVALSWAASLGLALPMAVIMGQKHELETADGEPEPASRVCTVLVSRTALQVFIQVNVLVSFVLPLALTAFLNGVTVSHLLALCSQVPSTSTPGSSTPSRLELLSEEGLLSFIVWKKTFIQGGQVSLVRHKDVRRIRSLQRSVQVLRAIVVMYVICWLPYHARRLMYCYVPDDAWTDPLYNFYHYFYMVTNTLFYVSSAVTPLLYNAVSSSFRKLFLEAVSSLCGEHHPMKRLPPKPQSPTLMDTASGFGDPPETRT

With `COc1cccc(OC)c1-c1cc(C(=O)NC2(C(=O)O)C3CC4CC(C3)CC2C4)nn1-c1ccc(C(=O)N(C)CCCN(C)C)cc1C(C)C` (stereo not drawn) [SR142948A], the “affinity at neurotensin-1 versus neurotensin-2 receptors (selectivity)” value in data set [1] is “equal affinity”. “Trp11 NT(1-13): NT(1-13) in which amino acid 11 is tryptophan; selective neurotensin-1 receptor agonist (QLYENKPRRPWIL; ends and bridges not checked; UniProt P30990 151-163, looked up, variant Y11W)”: the Kd in the data set with neurotensin-2 receptor is roughly 27 nM; with neurotensin-1 receptor, roughly 1 nM.
